Where two headings read alike, the source gives them in different places.
How the values were obtained:
h-MPCs [1] = test: Immunofluorescence staining for ETV2 after transfection with modRNA; assay type: cell-based, human; conditions: 6 h after transfection of h-MPCs
Procedure: Cells were seeded in 8-well LAB-TEK chamber slides at a density of 60,000 cell s/cm^2. After confluency, cells were fixed in 4% paraformaldehyde (PFA), permeabilized with 0.1% Triton X-100 in PBS, and then blocked for 30 min in 5% horse serum (Vector, Cat No. 5-2000). Subsequently, cells were incubated with primary antibodies for 30 min at room temperature (RT). Cells were washed 3 times with PBS and then incubated with secondary antibodies for 30 min at RT. Cells were washed 3 times with PBS and stained with 0.5 μg/mL DAPI for 5 min. Slides were mounted with DAKO fluorescence mounting medium (Agilent, Cat No. 5302380-2). Antibody information is detailed in Table 8, above.

h-MPCs [2] = test: Conversion of h-MPCs into h-iECs after transfection with modRNA(ETV2), flow cytometry; assay type: cell-based, human; conditions: for percentage of h-iECs at 96 h: above 0.5 μg of modRNA(ETV2) per 10^6 h-iPSCs
Description: Antibody information is detailed in Table 8.

Procedure for h-iPSCs: S1-modETV2 protocol (4 days)—h-iPSCs were dissociated into single cells with TrypLE select and plated on Matrigel at a density of 60,000 cells/cm^2 in mTeSR1 medium with 10 μM Y27632. After 24 h, the medium was changed to S1 medium consisting of basal medium supplemented with 6 μM CHIR99021. Basal medium was prepared by adding 1× GlutaMax supplement and 60 μg/mL L-Ascorbic acid into Advanced DMEM/F12. After 48 h, h-MPCs were dissociated into single cells and then transfected with modRNA(ETV2) by either electroporation or lipofection. For electroporation, 2 million h-MPCs were resuspended in 100 μL buffer mixed with 1 μg modETV2. Electroporated cells were then seeded on a 60-mm Matrigel-coated dish in modETV2 medium consisting of basal medium supplemented with 50 ng/mL VEGF-A, 50 ng/mL FGF-2, 10 ng/mL EGF and 10 μM SB431542. For lipofection, 3 μL lipofectamine RNAiMax (ThermoFisher, Cat No. 13778030) were diluted in 50 μL Opti-MEM (ThermoFisher, Cat No. 31985062) and 0.6 μg modRNA(ETV2) diluted in another 50 μL Opti-MEM. Lipofectamine and modRNA(ETV2) were then mixed and incubated for 15 min at room temperature. The lipid/RNA complex was added to 0.5 million h-MPCs in modETV2 medium and transfected cells were then seeded on a 35-mm Matrigel-coated dish. Upon transfection (electroporation or lipofection), cells were cultured for another 48 h before purification. Medium was changed every day throughout this protocol (Table 2). modRNA encoding GFP (TriLink, Cat No. L-7601) at a concentration of 0.2 μg per million h-MPCs served as negative control.
S1-S2, method #1 (4 days)—h-iPSCs were dissociated into single cells with TrypLE select and plated on Matrigel at a density of 60,000 cells/cm^2 in mTeSR1 medium with 10 μM Y27632. […]
Cells were dissociated into single-cell suspensions using TrypLE and washed with PBS supplemented with 100BSA and 0.2 mM EDTA. In indicated experiments, cells were stained with flow cytometry antibodies and analyzed using a Guava easyCyte 6HT/2L flow cytometer (Millipore Corporation, Billerica, Mass.) and FlowJo software (Tree Star Inc., Ashland, Oreg.). […]

Cc1cc(C)c(/C=C2\C(=O)Nc3ccccc32)[nH]1 [SU5416]
h-iECs at 96 h (h-iPSCs; S1-S2 protocol): < 2%
h-iECs at 96 h (h-iPSCs; S1-modETV2 protocol): 94%

VEGF
proportion of ETV2+ cells and subsequent conversion to CD31+ h-iECs (h-iPSCs; S1-S2 protocol, beyond 50 ng/mL): failed to further increase

B1: modRNA(ETV2): Chemically modified mRNA encoding ETV2, transcript variant 1 (NM_014209.3), SEQ ID NO: 1, generated by TriLink BioTechnologies (nucleic acid, listed as Homo sapiens)
chain: ATGGACCTGTGGAACTGGGATGAGGCATCCCCACAGGAAGTGCCTCCAGGGAACAAGCTGGCAGGGCTTGAAGGAGCCAAATTAGGCTTCTGTTTCCCTGATCTGGCACTCCAAGGGGACACGCCGACAGCGACAGCAGAGACATGCTGGAAAGGTACAAGCTCATCCCTGGCAAGCTTCCCACAGCTGGACTGGGGCTCCGCGTTACTGCACCCAGAAGTTCCATGGGGGGCGGAGCCCGACTCTCAGGCTCTTCCGTGGTCCGGGGACTGGACAGACATGGCGTGCACAGCCTGGGACTCTTGGAGCGGCGCCTCGCAGACCCTGGGCCCCGCCCCTCTCGGCCCGGGCCCCATCCCCGCCGCCGGCTCCGAAGGCGCCGCGGGCCAGAACTGCGTCCCCGTGGCGGGAGAGGCCACCTCGTGGTCGCGCGCCCAGGCCGCCGGGAGCAACACCAGCTGGGACTGTTCTGTGGGGCCCGACGGCGATACCTACTGGGGCAGTGGCCTGGGCGGGGAGCCGCGCACGGACTGTACCATTTCGTGGGGCGGGCCCGCGGGCCCGGACTGTACCACCTCCTGGAACCCGGGGCTGCATGCGGGTGGCACCACCTCTTTGAAGCGGTACCAGAGCTCAGCTCTCACCGTTTGCTCCGAACCGAGCCCGCAGTCGGACCGTGCCAGTTTGGCTCGATGCCCCAAAACTAACCACCGAGGTCCCATTCAGCTGTGGCAGTTCCTCCTGGAGCTGCTCCACGACGGGGCGCGTAGCAGCTGCATCCGTTGGACTGGCAACAGCCGCGAGTTCCAGCTGTGCGACCCCAAAGAGGTGGCTCGGCTGTGGGGCGAGCGCAAGAGAAAGCCGGGCATGAATTACGAGAAGCTGAGCCGGGGCCTTCGCTACTACTATCGCCGCGACATCGTGCGCAAGAGCGGGGGGCGAAAGTACACGTACCGCTTCGGGGGCCGCGTGCCCAGCCTAGCCTATCCGGACTGTGCGGGAGGCGGACGGGGAGCAGAGACACAATAA
modifications: chemically modified nucleosides
cells expressing ETV2 (h-MPCs [1]): > 85%
cells that were endothelial (VE-Cadherin+/CD31+ cells) (h-MPCs [2]; 48 h after transfection of h-MPCs): 95%
percentage of h-iECs at 96 h (h-MPCs [2]; electroporation): 95%
percentage of h-iECs at 96 h (h-MPCs [2]; lipofection): 75%
